Results from PMC10281804, “The structural basis of the talin–KANK1 interaction that coordinates the actin and microtubule cytoskeletons at focal adhesions” (Open Biology, 2023).

B1: KANK1 WT: human FL-KANK1 tagged with pmCherry (protein, UniProt Q14678 1-1352, looked up)
chain: MAHTTKVNGSASGKAGDILSGDQDKEQKDPYFVETPYGYQLDLDFLKYVDDIQKGNTIKRLNIQKRRKPSVPCPEPRTTSGQQGIWTSTESLSSSNSDDNKQCPNFLIARSQVTSTPISKPPPPLETSLPFLTIPENRQLPPPSPQLPKHNLHVTKTLMETRRRLEQERATMQMTPGEFRRPRLASFGGMGTTSSLPSFVGSGNHNPAKHQLQNGYQGNGDYGSYAPAAPTTSSMGSSIRHSPLSSGISTPVTNVSPMHLQHIREQMAIALKRLKELEEQVRTIPVLQVKISVLQEEKRQLVSQLKNQRAASQINVCGVRKRSYSAGNASQLEQLSRARRSGGELYIDYEEEEMETVEQSTQRIKEFRQLTADMQALEQKIQDSSCEASSELRENGECRSVAVGAEENMNDIVVYHRGSRSCKDAAVGTLVEMRNCGVSVTEAMLGVMTEADKEIELQQQTIESLKEKIYRLEVQLRETTHDREMTKLKQELQAAGSRKKVDKATMAQPLVFSKVVEAVVQTRDQMVGSHMDLVDTCVGTSVETNSVGISCQPECKNKVVGPELPMNWWIVKERVEMHDRCAGRSVEMCDKSVSVEVSVCETGSNTEESVNDLTLLKTNLNLKEVRSIGCGDCSVDVTVCSPKECASRGVNTEAVSQVEAAVMAVPRTADQDTSTDLEQVHQFTNTETATLIESCTNTCLSTLDKQTSTQTVETRTVAVGEGRVKDINSSTKTRSIGVGTLLSGHSGFDRPSAVKTKESGVGQININDNYLVGLKMRTIACGPPQLTVGLTASRRSVGVGDDPVGESLENPQPQAPLGMMTGLDHYIERIQKLLAEQQTLLAENYSELAEAFGEPHSQMGSLNSQLISTLSSINSVMKSASTEELRNPDFQKTSLGKITGNYLGYTCKCGGLQSGSPLSSQTSQPEQEVGTSEGKPISSLDAFPTQEGTLSPVNLTDDQIAAGLYACTNNESTLKSIMKKKDGNKDSNGAKKNLQFVGINGGYETTSSDDSSSDESSSSESDDECDVIEYPLEEEEEEEDEDTRGMAEGHHAVNIEGLKSARVEDEMQVQECEPEKVEIRERYELSEKMLSACNLLKNTINDPKALTSKDMRFCLNTLQHEWFRVSSQKSAIPAMVGDYIAAFEAISPDVLRYVINLADGNGNTALHYSVSHSNFEIVKLLLDADVCNVDHQNKAGYTPIMLAALAAVEAEKDMRIVEELFGCGDVNAKASQAGQTALMLAVSHGRIDMVKGLLACGADVNIQDDEGSTALMCASEHGHVEIVKLLLAQPGCNGHLEDNDGSTALSIALEAGHKDIAVLLYAHVNFAKAQSPGTPRLGRKTSPGPTHRGSFD
modifications: full-length mCherry fusion
notes: human FL-KANK1 tagged with pmCherry
B2: KANK1 V49E: mCherry-KANK1 with point mutation V49E (protein)
chain: MAHTTKVNGSASGKAGDILSGDQDKEQKDPYFVETPYGYQLDLDFLKYEDDIQKGNTIKRLNIQKRRKPSVPCPEPRTTSGQQGIWTSTESLSSSNSDDNKQCPNFLIARSQVTSTPISKPPPPLETSLPFLTIPENRQLPPPSPQLPKHNLHVTKTLMETRRRLEQERATMQMTPGEFRRPRLASFGGMGTTSSLPSFVGSGNHNPAKHQLQNGYQGNGDYGSYAPAAPTTSSMGSSIRHSPLSSGISTPVTNVSPMHLQHIREQMAIALKRLKELEEQVRTIPVLQVKISVLQEEKRQLVSQLKNQRAASQINVCGVRKRSYSAGNASQLEQLSRARRSGGELYIDYEEEEMETVEQSTQRIKEFRQLTADMQALEQKIQDSSCEASSELRENGECRSVAVGAEENMNDIVVYHRGSRSCKDAAVGTLVEMRNCGVSVTEAMLGVMTEADKEIELQQQTIESLKEKIYRLEVQLRETTHDREMTKLKQELQAAGSRKKVDKATMAQPLVFSKVVEAVVQTRDQMVGSHMDLVDTCVGTSVETNSVGISCQPECKNKVVGPELPMNWWIVKERVEMHDRCAGRSVEMCDKSVSVEVSVCETGSNTEESVNDLTLLKTNLNLKEVRSIGCGDCSVDVTVCSPKECASRGVNTEAVSQVEAAVMAVPRTADQDTSTDLEQVHQFTNTETATLIESCTNTCLSTLDKQTSTQTVETRTVAVGEGRVKDINSSTKTRSIGVGTLLSGHSGFDRPSAVKTKESGVGQININDNYLVGLKMRTIACGPPQLTVGLTASRRSVGVGDDPVGESLENPQPQAPLGMMTGLDHYIERIQKLLAEQQTLLAENYSELAEAFGEPHSQMGSLNSQLISTLSSINSVMKSASTEELRNPDFQKTSLGKITGNYLGYTCKCGGLQSGSPLSSQTSQPEQEVGTSEGKPISSLDAFPTQEGTLSPVNLTDDQIAAGLYACTNNESTLKSIMKKKDGNKDSNGAKKNLQFVGINGGYETTSSDDSSSDESSSSESDDECDVIEYPLEEEEEEEDEDTRGMAEGHHAVNIEGLKSARVEDEMQVQECEPEKVEIRERYELSEKMLSACNLLKNTINDPKALTSKDMRFCLNTLQHEWFRVSSQKSAIPAMVGDYIAAFEAISPDVLRYVINLADGNGNTALHYSVSHSNFEIVKLLLDADVCNVDHQNKAGYTPIMLAALAAVEAEKDMRIVEELFGCGDVNAKASQAGQTALMLAVSHGRIDMVKGLLACGADVNIQDDEGSTALMCASEHGHVEIVKLLLAQPGCNGHLEDNDGSTALSIALEAGHKDIAVLLYAHVNFAKAQSPGTPRLGRKTSPGPTHRGSFD
modifications: left off: mCherry, C-terminal, kept

Columns and labels:
[1] = tested on: focal adhesions of NIH3T3 fibroblasts; assay: KANK1 localization to focal adhesions (co-expression with GFP–paxillin); format: cell-based, mouse; conditions: NIH3T3 fibroblasts co-expressing GFP–paxillin
Experimental: (§1) NIH3T3 mouse fibroblasts and HEK293T human epithelial cells were obtained from the American Type Culture Collection (ATCC). The vinculin null and WT mouse embryonic fibroblasts (MEFs) originate from the Eileen Adamson laboratory. All cells were maintained in Dulbecco's Modified Eagle Medium (DMEM; Sigma) supplemented with 10% fetal bovine serum (FBS, Gibco), 1% L-glutamine (Sigma) and 1% non-essential amino acids (Sigma). Talin1&2 null cells were cultured in DMEM F-12 (Gibco) supplemented with 10% FBS, 1% L-glutamine, 1% non-essential amino acids and […] HEPES (Sigma). All cells were cultured at 37̊C supplied with 5% CO2 and 95% humidity. Transient transfections were performed using Lipofectamine LTX with Plus Reagent (Invitrogen) to NIH3T3 cells, Lipofectamine 2000 (Invitrogen) to talin null cells, and jetPRIME reagent (Polyplus) to MEFs and HEK293T cells, as per the manufacturer's instructions.
(§2) For the construction of mCherry-KANK1, human FL-KANK1 (generous donation from the Bershadsky laboratory) cDNA was tagged in the C-terminal site with pmCherry (Clontech) by restriction digestion. Point mutations (L41E, L43E, F45E and V49E) were introduced in mCherry-KANK1 by site-directed mutagenesis (NEB) using the following oligonucleotides: […]ga[…] and […] for L41E; […]ga[…] and […] for L43E; […]gaa[…] and […] for F45E; […]a[…] and […] for V49E. Generation of GFP–talin1–cBAK and GFP–cBAK was as previously described. G1404L was introduced on GFP–talin1–cBAK by the method above using […]ctt[…] and […]. To generate GFP–talin1 R7DD–cBAK and GFP–talin1 R9DD-cBAK constructs, R7-DD (3555 bp) and R9-DD (2661 bp) were amplified from talin-1 (Mus musculus). Restriction digestion with XhoI and HindIII FastDigest enzymes (Thermo Scientific) was used to linearize GFP–cBAK. DNA assembly was performed to join R7-DD and R9-DD to linearized the GFP–cBAK vector using the NEBuilder HiFi DNA assembly kit (NEB).
(§3) Images of fixed samples in PBS were acquired at room temperature using an Olympus IX83 inverted microscope equipped with a 60×/1.42 PlanApo N oil objective and a QImaging Retiga R6 CCD camera, controlled by Metamorph software. Samples were illuminated using LEDs (UV/Cyan/Green-Yellow/Red, Lumencor) for fluorescence excitation; a Sedat filter set (DAPI/FITC/TRITC/Cy5, Chroma, 89000) was used.

[2] = tested on: GFP–talin1–cBAK; assay: Mitochondrial targeting system (MTS): recruitment of mCherry–KANK1 by GFP–talin1–cBAK; format: cell-based; conditions: NIH3T3 fibroblasts and HEK293T cells; fluorescence microscopy colocalization
Text: To examine the effect of these KANK1 mutations on talin interactions in cells, we next used a mitochondrial targeting system (MTS) which we previously used to screen for defined protein–protein interactions. In this assay, one protein is fused to a small peptide sequence from the pro-apoptotic protein BAK (cBAK) which leads to its insertion into the outer membrane of mitochondria. Proteins that interact with the cBAK-tagged protein will get recruited to mitochondria, and this recruitment can be verified either by visualizing colocalization using fluorescence microscopy (figure 4a) or by purification of mitochondria followed by detection of co-precipitates using biochemistry (figure 4b,c). […] To confirm that the interaction was meditated by the R7 domain, we performed the colocalization assays with truncated talin constructs.
as §1, §2, §3

Molecule | localization of mCherry–KANK1 to FAs / FA belt [1] | recruitment of mCherry–KANK1 to mitochondria by GFP–talin1–cBAK [2]
B1 | readily localized to FAs, and predominantly to the typical ‘belt-like’ structure | readily recruits
B2 | abolished localization to FAs and the FA belt | abolishes GFP–talin–cBAK mediated recruitment
